Patent US20130315910A1 (Xencor, published 2013)
Numbering of substitutions follows the chain as printed. In names and notes the source's numbering stands. One block for each binder: values may come before it.

Legend:
[1] = target: T1, human FcγRIIb receptor protein (R&D Systems) (human, UniProt P31994 46-217); experiment: SPR
T1 construct: Bought protein injected over captured antibody in Biacore; also called CD32b
T1 sequence (looked up): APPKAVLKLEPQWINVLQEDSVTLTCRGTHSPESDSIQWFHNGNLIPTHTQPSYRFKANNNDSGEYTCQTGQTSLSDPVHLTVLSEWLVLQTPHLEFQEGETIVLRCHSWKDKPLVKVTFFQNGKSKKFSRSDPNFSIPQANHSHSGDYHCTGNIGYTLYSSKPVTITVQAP

[2] = target: T2, human FcγRI receptor protein (R&D Systems) (human, UniProt P12314 16-288); experiment: SPR
T2 construct: also called soluble FcγRI; solFcγRI

[3] = target: T3, human FcγRIIa (131R), His- and GST-tagged (human, UniProt P12318 34-217); experiment: SPR
T3 construct: Expressed in HEK293T cells, purified by nickel chromatography; also called R131 FcγRIIa; not shown: 6xHis and GST tags of the pTT5 vector
T3 sequence (looked up): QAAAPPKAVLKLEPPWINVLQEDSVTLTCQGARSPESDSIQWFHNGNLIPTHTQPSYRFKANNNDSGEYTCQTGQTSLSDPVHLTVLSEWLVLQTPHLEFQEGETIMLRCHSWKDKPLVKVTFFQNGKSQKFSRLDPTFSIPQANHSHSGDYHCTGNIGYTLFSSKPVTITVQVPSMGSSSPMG

[4] = target: T4, human FcγRIIa (131H), His- and GST-tagged (human, UniProt P12318 34-217); experiment: SPR
T4 construct: also called H131 FcγRIIa; HIIa; not shown: 6xHis and GST tags of the pTT5 vector
T4 sequence (looked up): T3 sequence (looked up) with R134H

[5] = target: T5, human FcγRIIIa (158V), His- and GST-tagged (human, UniProt P08637 17-208); experiment: SPR
T5 construct: also called V158 FcγRIIIa; VIIIa; not shown: 6xHis and GST tags of the pTT5 vector

[6] = target: T6, human FcγRIIIa (158F), His- and GST-tagged (human, UniProt P08637 17-208); experiment: SPR
T6 construct: also called F158 FcγRIIIa; not shown: 6xHis and GST tags of the pTT5 vector

[7] = target: T1, human FcγRIIb receptor protein (R&D …); experiment: Biacore SPR, antibody captured on protein A/G chip, FcγR injected, 1:1 Langmuir fit
Protocol: (§1) Variants were screened for receptor affinity using Biacore™ technology, also referred to as Biacore herein, a surface plasmon resonance (SPR) based technology for studying biomolecular interactions in real time. SPR measurements were performed using a Biacore 3000 instrument (Biacore, Piscataway, N.J.). A protein A/G (Pierce Biotechnology) CM5 biosensor chip (Biacore) was generated using a standard primary amine coupling protocol. All measurements were performed using HBS-EP buffer (10 mM HEPES pH 7.4, 0.15 M NaCl, 3 mM EDTA, 0.005% vol/vol surfactant P20, Biacore). Antibodies at 20 nM or 50 nM in HBS-EP buffer were immobilized on the protein A/G surface and FcγRs were injected. After each cycle, the surface was regenerated by injecting glycine buffer (10 mM, pH 1.5). Data were processed by zeroing time and response before the injection of FcγR and by subtracting appropriate nonspecific signals (response of reference channel and injection of running buffer). Kinetic analyses were performed by global fitting of binding data with a 1:1 Langmuir binding model using BIAevaluation software (Biacore).

[8] = target: T7, human FcγRIIb on cells (transfected HEK293T cells; primary human B cells) (human, UniProt P31994 43-310); experiment: flow cytometry on FcγRIIb-transfected 293T cells [top left panel]
T7 construct: whole, on cells; also called CD32b
T7 sequence (looked up): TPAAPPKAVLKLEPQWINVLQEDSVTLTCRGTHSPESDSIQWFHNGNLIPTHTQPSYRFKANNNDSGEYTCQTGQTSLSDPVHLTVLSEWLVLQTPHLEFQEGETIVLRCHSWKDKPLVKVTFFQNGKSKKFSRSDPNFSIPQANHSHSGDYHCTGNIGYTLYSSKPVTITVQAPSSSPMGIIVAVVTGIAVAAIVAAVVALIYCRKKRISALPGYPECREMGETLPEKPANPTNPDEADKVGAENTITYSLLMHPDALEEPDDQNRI
Protocol: (§2) In order to validate the Biacore data and evaluate receptor binding of the variants on the cell surface, binding of select antibodies to cells expressing FcγRIIb was measured. […] HEK293T cells in DMEM with 10% FBS were transfected with human FcγRIIb cDNA in pCMV6 expression vector (Origene Technologies, Rockville, Md.), cultured for 3 days, harvested, washed twice in PBS, resuspended in PBS with 0.1% BSA (PBS/BSA), and aliquoted at 2×10^5 cells per well into 96-well microtiter plates. Fc variant antibodies were serially diluted in PBS/BSA then added to the cells and incubated with mixing for 1 h at room temperature. After extensive washing with PBS/BSA, phycoerythrin (PE)-labeled anti-human-Fab-specific goat F(ab′)2 fragment was added for detection. Cells were incubated for 30 min at room temperature, washed, and resuspended in PBS/BSA. Binding was evaluated using a FACSCanto II flow cytometer (BD Biosciences, San Jose, Calif.), and the mean fluorescence intensity (MFI) was plotted as a function of antibody concentration using Graph Pad Prism software (GraphPad Software, San Diego, Calif.) from which half-maximal binding (EC50) values were determined by sigmoidal dose response modeling.

[9] = target: T7, human FcγRIIb on cells (transfected …); experiment: flow cytometry on FcγRIIb-transfected 293T cells [top right panel]
Protocol: as §2

[10] = target: T7, human FcγRIIb on cells (transfected …); experiment: flow cytometry on FcγRIIb-transfected 293T cells [middle left panel]
Protocol: as §2

[11] = target: T7, human FcγRIIb on cells (transfected …); experiment: flow cytometry on FcγRIIb-transfected 293T cells [middle right panel]
Protocol: as §2

[12] = target: T7, human FcγRIIb on cells (transfected …); experiment: flow cytometry on FcγRIIb-transfected 293T cells [bottom left panel]
Protocol: as §2

mFcγRIIb = target: T8, mFcγRIIb (Mus musculus, UniProt P08101); experiment: SPR
T8 construct: extracellular region, C-terminal His- and GST-tag; also called mouse FcγRII
T8 sequence (receptor extracellular region, looked up): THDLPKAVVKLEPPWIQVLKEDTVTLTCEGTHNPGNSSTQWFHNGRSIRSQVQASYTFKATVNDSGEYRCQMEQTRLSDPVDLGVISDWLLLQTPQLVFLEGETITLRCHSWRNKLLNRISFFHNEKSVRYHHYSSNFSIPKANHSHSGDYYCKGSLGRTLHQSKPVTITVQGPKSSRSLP

mFcγRIV = target: T9, mFcγRIV; experiment: SPR
T9 construct: also called mouse FcγRIV; not shown: C-terminal His and GST tags (named only on our card)
T9 chain: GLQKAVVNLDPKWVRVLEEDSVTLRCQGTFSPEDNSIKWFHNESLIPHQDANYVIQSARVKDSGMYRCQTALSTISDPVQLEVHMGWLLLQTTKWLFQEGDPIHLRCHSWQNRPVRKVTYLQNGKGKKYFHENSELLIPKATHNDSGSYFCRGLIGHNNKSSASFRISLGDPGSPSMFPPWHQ

cynoFcγRIIb = target: T10, cynoFcγRIIb (Macaca fascicularis, UniProt A0A140HDP4); experiment: SPR
T10 construct: extracellular region, C-terminal His- and GST-tag; also called cynomolgus monkey FcγRIIb
T10 sequence (receptor extracellular region): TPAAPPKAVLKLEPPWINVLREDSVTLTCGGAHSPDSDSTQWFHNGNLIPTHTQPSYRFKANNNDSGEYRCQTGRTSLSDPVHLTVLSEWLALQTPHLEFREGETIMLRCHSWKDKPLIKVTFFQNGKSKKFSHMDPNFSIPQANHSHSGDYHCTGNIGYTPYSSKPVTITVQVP

cynoFcγRIIIa = target: T11, cynoFcγRIIIa (Macaca fascicularis, UniProt Q8SPW2); experiment: SPR, Kd
T11 construct: extracellular region, C-terminal His- and GST-tag; also called cynomolgus monkey FcγRIIIa
Protocol: as §1
Variant antibodies were tested for their affinity to mouse or cynologous monkey FcγRs using Biacore SPR as described above. Specifically, antibodies were first immobilized on a protein A/G chip to high density, and then followed by injections of the extracellular domain of the mouse or cynologous monkey FcγR of interest. Both association and dissociation phases were tracked in real time using the Biacore technology.

[13] = target: T7, human FcγRIIb on cells (transfected …); experiment: flow cytometry on HEK293T cells transfected with human FcγRIIb, PE anti-human Fab detection
Protocol: as §2
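Throughout, for Fold vs WT IgG1 (off-rate): fold improvement over WT IgG1 so higher means slower dissociation than WT.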

T5 sequence (P08637 17-208 F176V): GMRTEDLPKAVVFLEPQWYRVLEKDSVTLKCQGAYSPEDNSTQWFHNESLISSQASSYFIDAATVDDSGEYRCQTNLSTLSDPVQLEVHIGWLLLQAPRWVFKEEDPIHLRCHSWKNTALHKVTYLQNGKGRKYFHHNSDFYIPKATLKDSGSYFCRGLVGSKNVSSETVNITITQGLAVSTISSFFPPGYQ
T2 sequence (P12314 16-288 limits assumed): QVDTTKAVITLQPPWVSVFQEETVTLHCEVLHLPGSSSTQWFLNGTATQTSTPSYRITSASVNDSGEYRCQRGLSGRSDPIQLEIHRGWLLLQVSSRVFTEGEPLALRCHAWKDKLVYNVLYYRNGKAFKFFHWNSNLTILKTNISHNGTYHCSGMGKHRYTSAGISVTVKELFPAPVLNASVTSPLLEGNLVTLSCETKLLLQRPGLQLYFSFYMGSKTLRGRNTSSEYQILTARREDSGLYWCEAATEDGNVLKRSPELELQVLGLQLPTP
T6 sequence (P08637 17-208): as the sequence (P08637 17-208 F176V) above, with V160F counted along it
T11 sequence (Q8SPW2 17-208): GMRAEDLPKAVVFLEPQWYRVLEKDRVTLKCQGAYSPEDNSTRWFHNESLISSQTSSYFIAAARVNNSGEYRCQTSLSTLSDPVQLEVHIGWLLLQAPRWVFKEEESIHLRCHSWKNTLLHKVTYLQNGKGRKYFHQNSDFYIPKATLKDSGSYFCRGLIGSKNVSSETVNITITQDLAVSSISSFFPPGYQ

Fold vs WT IgG1 [1]: 1 fold | Fold vs WT IgG1 [2]: 1 fold | Kd [2]: 0.329 nM | Fold vs WT IgG1 [3]: 1 fold | Kd [3]: 859 nM | Fold vs WT IgG1 [4]: 1 fold | Kd [4]: 646 nM | Fold vs WT IgG1 [5]: 1 fold | Kd [5]: 191 nM | Fold vs WT IgG1 [6]: 1 fold | Kd [7]: 1470 nM
B1: anti-CD19 antibody HuAM4G7, WT (native) IgG1 (antibody)
heavy: not shown
light: DIVMTQSPATLSLSPGERATLSCRSSKSLQNVNGNTYLYWFQQKPGQSPQLLIYRMSNLNSGVPDRFSGSGSGTEFTLTISSLEPEDFAVYYCMQHLEYPITFGAGTKLEIKRTVAAPSVFIFPPSDEQLKSGTASVVCLLNNFYPREAKVQWKVDNALQSGNSQESVTEQDSKDSTYSLSSTLTLSKADYEKHKVYACEVTHQGLSSPVTKSFNRGEC
notes: also called WT IgG1; anti-CD19-IgG1; copies: 2 + 2

Kd [1]: 101 nM | Kd [2]: 0.0374 nM | Kd [3]: 68.6 nM | Kd [4]: 163 nM | Kd [6]: 28.2 nM | EC50 (read off the curve) [8]: ~0.02 µg/mL | EC50 (read off the curve) [9]: ~0.02 µg/mL | EC50 (read off the curve) [10]: ~0.03 µg/mL | EC50 (read off the curve) [11]: ~0.03 µg/mL
B2: S239D/I332E (antibody, human IgG1, kappa)
heavy: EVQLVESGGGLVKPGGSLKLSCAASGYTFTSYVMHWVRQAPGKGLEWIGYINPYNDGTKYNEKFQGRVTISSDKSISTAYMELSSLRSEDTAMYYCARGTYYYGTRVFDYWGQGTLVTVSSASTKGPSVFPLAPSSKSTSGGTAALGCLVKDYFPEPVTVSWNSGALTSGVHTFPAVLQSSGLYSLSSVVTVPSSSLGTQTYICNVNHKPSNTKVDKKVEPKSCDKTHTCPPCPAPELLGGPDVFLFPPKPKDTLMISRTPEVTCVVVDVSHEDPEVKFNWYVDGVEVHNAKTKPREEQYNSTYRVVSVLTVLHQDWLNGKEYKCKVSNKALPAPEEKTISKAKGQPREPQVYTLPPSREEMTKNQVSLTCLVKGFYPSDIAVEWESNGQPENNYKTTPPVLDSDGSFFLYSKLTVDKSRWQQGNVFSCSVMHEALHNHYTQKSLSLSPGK
light: B1 light
notes: HuAM4G7 anti-CD19 IgG1 (m1) with these Fc substitutions, EU index; copies: 2 + 2

Fold vs WT IgG1 [1]: 37.2 fold | Kd [1]: 39.4 nM | Fold vs WT IgG1 [2]: 0.00347 fold | Kd [2]: 95 nM | Fold vs WT IgG1 [3]: 37.5 fold | Kd [3]: 22.9 nM | Fold vs WT IgG1 [4]: 0.941 fold | Kd [4]: 687 nM | binding result [5]: no binding | EC50 (read off the curve) [12]: ~0.006 µg/mL
B3: anti-CD19 antibody HuAM4G7 IgG1 L235Y/S267E (antibody)
heavy: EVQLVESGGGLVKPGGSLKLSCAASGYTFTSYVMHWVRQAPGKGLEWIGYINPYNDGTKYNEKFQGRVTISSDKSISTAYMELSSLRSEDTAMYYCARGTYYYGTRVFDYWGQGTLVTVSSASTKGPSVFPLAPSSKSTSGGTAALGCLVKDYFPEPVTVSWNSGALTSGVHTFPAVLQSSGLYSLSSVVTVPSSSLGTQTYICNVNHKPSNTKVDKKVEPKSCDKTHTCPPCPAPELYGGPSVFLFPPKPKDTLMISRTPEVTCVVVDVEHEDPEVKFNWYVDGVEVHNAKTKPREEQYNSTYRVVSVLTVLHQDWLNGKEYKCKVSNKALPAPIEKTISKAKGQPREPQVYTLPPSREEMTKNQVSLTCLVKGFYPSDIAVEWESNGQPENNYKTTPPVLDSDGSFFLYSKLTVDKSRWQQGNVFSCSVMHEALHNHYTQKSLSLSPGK
light: B1 light
notes: Positions in EU numbering; copies: 2 + 2

Fold vs WT IgG1 [1]: 242 fold | Kd [1]: 6.06 nM | Fold vs WT IgG1 [2]: 1.5 fold | Kd [2]: 0.22 nM | Fold vs WT IgG1 [3]: 275 fold | Kd [3]: 3.12 nM | Fold vs WT IgG1 [4]: 0.7 fold | Kd [4]: 923 nM | Fold vs WT IgG1 [5]: 0.038 fold | Kd [5]: 5040 nM | Fold vs WT IgG1 (Kd) (mFcγRIIb): 1.06 fold | Fold vs WT IgG1 (off-rate) (mFcγRIIb): 4.89 fold | Fold vs WT IgG1 (Kd) (mFcγRIV): 0.02 fold | Fold vs WT IgG1 (off-rate) (mFcγRIV): 0.198 fold | Fold vs WT IgG1 (Kd) (cynoFcγRIIb): 0.881 fold | Fold vs WT IgG1 (off-rate) (cynoFcγRIIb): 1.26 fold | binding result (cynoFcγRIIIa): no binding | fold EC50 relative to WT IgG1 [13]: ~320 fold
B4: anti-CD19 antibody HuAM4G7 IgG1 S267E/L328F (antibody)
heavy: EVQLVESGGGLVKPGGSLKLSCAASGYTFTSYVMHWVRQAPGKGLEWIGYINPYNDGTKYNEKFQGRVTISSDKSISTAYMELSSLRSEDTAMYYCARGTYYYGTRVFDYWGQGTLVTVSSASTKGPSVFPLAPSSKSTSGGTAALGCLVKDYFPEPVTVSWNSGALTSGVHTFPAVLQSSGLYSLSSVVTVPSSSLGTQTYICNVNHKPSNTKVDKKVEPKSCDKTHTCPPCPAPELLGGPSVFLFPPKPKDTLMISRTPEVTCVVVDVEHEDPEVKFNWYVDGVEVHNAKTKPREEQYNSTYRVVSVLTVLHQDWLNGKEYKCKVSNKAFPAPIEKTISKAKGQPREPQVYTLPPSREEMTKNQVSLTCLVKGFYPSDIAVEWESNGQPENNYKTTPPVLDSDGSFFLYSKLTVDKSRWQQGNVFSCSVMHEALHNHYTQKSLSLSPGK
light: B1 light
notes: Positions in EU numbering; also called anti-CD19-S267E/L328F; α-CD19-S267E/L328F; copies: 2 + 2
